Data as given in the supplement of paper PMC9170038.

What was measured:
[1] = system: MS2 coat protein; test: apparent KD of MS2 coat protein, switch ON state; designed switch direction (-1 OFF switch, 1 ON switch): 1; higher = weaker reporter binding; details: FMN input: 0 or 200 uM; Eterna round: R93 (includes R88 designs)
How it was run: (§1)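 Designed RNA switches were transcribed on-chip from Illumina sequencing clusters. They were then titrated with SNAP-549-labelled MS2 coat protein (twofold steps, 0.7 or 1.5 nM to 3 µM; 0.8–1.5 h to 10–20 min per step) in 100 mM Tris-HCl pH 7.5, 80 mM KCl, 4 mM MgCl2, without or with constant ligand. Apparent KD is the per-design median of normalised cluster binding-curve fits.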

[2] = system: MS2 coat protein; test: apparent KD of MS2 coat protein, switch OFF state (with FMN for OFF switches, without FMN for ON switches); designed switch direction (-1 OFF switch, 1 ON switch): 1; higher = weaker reporter binding; details: FMN input: 0 or 200 uM; Eterna round: R93 (includes R88 designs)
How it was run: as §1

Row | Sequence | apparent KD of MS2 coat protein [1] | apparent KD of MS2 coat protein [2]
1 | AUAAAUAAAAUAGAGGAUAUCCAAAACAAAACAUGAGGAUCACCCAUGUAAAAGAAAAUAAAAUGGGAGAAGGCUACAAAUAAAU [SS2 M 3] | 20.1 nM | 30.5 nM
2 | AUAAAUAAAAUCGAGGAUAUCCAAUAAUAAACAUGAGGAUCACCCAUGUAAAAGAAAAUAUAAUGGGAGAAGGCGAAUAAUAAAU [JR_SS002_Sub1701] | 16.3 nM | 20 nM
3 | AUAACACAUGAGGAUCACCCAUGUAGAAAUAAGGGAGGAUAUACAAAGACGAAAGUCAAAGUAGAAGGCUCAAAAG [76%, Meechl 4] | 14.8 nM | 18.6 nM
4 | AUAGGGACGUCGGAGGAUAUUCGAUGUAAAACAUGAGGAUCACCCAUGUGAAUAAAAUAAACAUGGAAGAAGGCCGACGUGCCAU [SS 2 M 54] | 10.3 nM | 13.3 nM
5 | AUAUAAAUAAGGUAGGAUAUACUAAAGUAAACAUGAGGAUCACCCAUGUAAAGAAAGAAACUCAUGUAGAAGGACCAUAUAUAUA [viburnum 1] | 24.4 nM | 264 nM
6 | AUAUAUAUAAGACAGGAUAUCCGAAAGUAAACAUGAGGAUCACCCAUGUAAAGAAAGAAACUCAUGGAGAAGGGUCAAUAUAUAU [Mat - Same State 2 - Tesla mod - D84] | 22.4 nM | 65.6 nM
7 | AUAUAUAUAAGGUAGGAUAUCCAAAAGUAAACAUGAGGAUCACCCAUGUAAAAAAUCUAAAAAUGGGAGAAGGACCAUAUAUAUA | 19 nM | 37.1 nM
8 | AUAUAUAUAAGGUAGGAUAUCCAAAAGUCCACAUGAGGAUCACCCAUGUAAAGAAAGAAAAAAUGGGAGAAGGACCAUAUAUAUA [77%, More Tesla, 5] | 18.7 nM | 42.1 nM
9 | AUCUAACAUGAGGAUCACCCAUGUAUUCAAAAACAAGGAUAUAUAACAAACAAACAACAAAUAGAAGGUGUAAAUA [Default title] | 19 nM | 19.6 nM
10 | AUUUUACAUGAGGAUCACCCAUGUUUUGGUGGAUCAGGAUAUAAAUUGAAUGAGUUUUAGUUAGAAGGGAUAUAUA [JR_SS001_Sub505] | 78.4 nM | 54 nM
11 | CAACAGAGAGGACAGGAUAUGUCGUGAUAAACAUGAGGAUCACCCAUGUGAGACAUCACGUAGUCGCAGAAGGGUCCCGUCUUAC [Esleerandi] | 15.3 nM | 18.8 nM
12 | CAUCAUGCGCCUAAGGAUAUGUCUCACAAGACAUGAGGAUCACCCAUGUAGAAUAAAUAAAUGAUGCAGAAGGUGGAGUGCAUGC [Rierre] | 72.1 nM | 334 nM
13 | CAUCAUGCGCCUAAGGAUAUGUCUCACAAGACAUGAGGAUCACCCAUGUAGACAAAAUAAGCGAUGCAGAAGGUGGAGCGCAUGC [Rasoer] | 83.1 nM | 348 nM
14 | CAUCAUGCGCCUAAGGAUAUGUCUCACAAGACAUGAGGAUCACCCAUGUAUAAUAAAUAAAUGAUGCAGAAGGUGGAGUGCAUGC [Latibe] | 87.7 nM | 245 nM
15 | CCCAAUGCAACGAAGGAUAUCCGUCAUGCCACAUGAGGAUCACCCAUGUACUGGCGGCACAAGACGGAGAAGGUCGGGUGCUGUG [Quenrean] | 9.4 nM | 11 nM
16 | CCGAUGGUAUACUAGGAUAUGGGCGCCCUUACAUGAGGAUCACCCAUGUUAUCACAAAGCCGCGGCCAGAAGGAGUUCAUGGGAG [Tieronsove] | 94.7 nM | 122 nM
17 | CCUAGACAUGAGGAUCACCCAUGUCGAACAAACAAAGGAUAUGGGAGCCGAAGAAGGCUAUUAGAAGGUUGCAAAU [Aisedbi] | 29.4 nM | 34 nM

Row | Sequence | apparent KD of MS2 coat protein [1] | apparent KD of MS2 coat protein [2]
18 | CGAAAGGAGAGAGAGGAUAUCCAAAGGAAAACAUGAGGAUCACCCAUGUAGAAGGUAGGAGAUUGGGAGAAGGCUCAAGAGAGCU [salish99-ss2-152] | 30.5 nM | 32.6 nM
19 | CGAAAGGAGAGAGAGGAUAUCCAAAGGAAAACAUGAGGAUCACCCAUGUAGAAGGUAGGAGAUUGGGAGAAGGCUCAAGAGAUAU [salish99-ss2-153] | 20 nM | 44.2 nM
20 | CGCAAACAUGAGGAUCACCCAUGUCAAUGUGGUCAAGGAUAUGGGUUCCUAAAUGGAACACCAGAAGGUGAAAAGA [Anesatve] | 20 nM | 54.5 nM
21 | CGGGCCCGGGCGCAGGAUAUCUGAAAAAAAACAUGAGGAUCACCCAUGUGUGGGAAAAAAAAAAAAGAGAAGGGCGCCCGGGCCC [Natural State 2 -38.15 -4 kcal] | 29.4 nM | 48.6 nM
22 | GAAAAACAUGAGGAUCACCCAUGUAAAAAUAUGGGAGGAUAUUGAAACACGAAAGUCAAACAAGAAGGCCUAAAAG [Garnet 3] | 44.1 nM | 147 nM
23 | GAAAAACAUGAGGAUCACCCAUGUAGAAACAUGGGAGGAUAUACAAAGACGAAAGUCAAAGUAGAAGGCCUAAAAA [Mat - Same State 1 - Mod - D160] | 149 nM | 851 nM
24 | GAAAAACAUGAGGAUCACCCAUGUAGAAAUAUGGGAGGAUAUACAAAGACGAAAGUCAAAGUAGAAGGCCCAAAAG [Starry Same State 1.1 (mat747 round 1 mod)] | 24.1 nM | 38.8 nM
25 | GAAAAACAUGAGGAUCACCCAUGUAGAAAUAUGGGAGGAUAUACAAAGUGGAAAGACAAAGUAGAAGGCCUAAAAG [Garnet 25] | 35.6 nM | 309 nM
26 | GAAAAACAUGAGGAUCACCCAUGUAGAGAUAUGGGAGGAUAUACGAAGACGAAAGACGAGGUAGAAGGCCUAAAAG [Garnet 57] | 66.1 nM | 218 nM
27 | GAAAAACAUGAGGAUCACCCAUGUAGAGAUAUGGGAGGAUAUACGAAGACGAAAGUCGAGGUAGAAGGCCUAAAAG [Garnet 56] | 27.7 nM | 108 nM
28 | GAAAAACAUGAGGAUCACCCAUGUGAGAACAUGGGAGGAUAUACGAGGACGAAAGUCAAAGUAGAAGGCCUAAGAG [Garnet 86] | 164 nM | 30 nM
29 | GAAAAACAUGAGGAUCACCCAUGUGGAAAUAUGGGAGGAUAUACAAAGACGAAAGUCAAAGUAGAAGGCCUAAAAG [Mat - Same State 1 - Eli mod - D4] | 18.2 nM | 111 nM
30 | GAAAAACAUGAGGAUCACCCAUGUGGAAAUAUGGGAGGAUAUACAAAGACGUAAGUCAAAGUAGAAGGCCUAAAAG [Garnet 94] | 30.8 nM | 177 nM
31 | GAAAUAAAAACACAGGAUAUCCAAAAGAAAACAUGAGGAUCACCCAUGUAAAGAAAAUAAAAAUGGGAGAAGGGUGAAAAUAAAG [Mat - Same State 2 - JL mod - D25] | 26.4 nM | 93.8 nM
32 | GAAAUAAAAACACAGGAUAUCCAAAAGAAAACAUGAGGAUCACCCAUGUAAAGAAAAUAAAAAUGGGAGAAGGGUGAAAUAAAAA [Mat - Same State 2 - JL mod - D27] | 30.4 nM | 33.8 nM
33 | GAACCACAUGAGGAUCACCCAUGUCUAAGAAUGGGAGGAUAUGCACAAAAGGAAAUAACUGCAGAAGGCCUACGAA [62%, Redo, 2] | 23.2 nM | 129 nM
